Reference: the supplement of paper PMC9170038

System: K4 kissing-loop RNA reporter
Assay: apparent KD of K4 kissing-loop reporter; higher = weaker reporter binding
Conditions: Eterna round: R107
Experimental: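 RNA-MaP round R107: designed RNA switches with theophylline, tryptophan, arginine or FMN aptamers are transcribed on-chip within common flanks. They are titrated with a labelled K4 kissing-loop RNA reporter in RNA-MaP buffer (100 mM Tris pH 7.5, 80 mM KCl, 4 mM MgCl2), without ligand or with the indicated ligand. Median apparent KD per design.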

[1] = input ligand: theophylline 20 uM
[2] = input ligand: tryptophan 2.4 mM
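Further: bound reporter read as fluorescence of individual clusters on recovered sequencing chips by microscopy, with normalized cluster intensities fitted with a binding model.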

Row | Sequence | apparent KD of K4 kissing-loop reporter (input ligand: FMN 200 uM) [nM] | apparent KD of K4 kissing-loop reporter (input ligand: arginine 13.2 mM) [nM] | apparent KD of K4 kissing-loop reporter (input ligand: none) [nM] | apparent KD of K4 kissing-loop reporter [1] [nM] | apparent KD of K4 kissing-loop reporter [2] [nM]
1 | AUGUCUGAUAGCAGUGAUGUUGCUUCGGAUACCAGACGAGAUCAUGUCCCUUGGCAGCUGACACGGCACGUGCUAGGUUAGAUGA [whbob_Ex_Theo_A_th72] | 121 | 98.3 | 115 | 116 | 113
2 | AUUAAUAACUGAGGAUAUCGUUUUACUGUAGUGAUGUUACAGAAAGUUCAAAUUAUAAUUUCUAUUCGAGAAGGCAGAAUAAUUA [JR_SSFMNB_Sub026] | 77.7 | 68.9 | 53.5 | 62.8 | 48.1
3 | AUUAAUUUCAGAGGAUAUCGUUAUUUUAUUUAAUUUAUUCAUUUAUGCAGUGAUGUUGCUAUUAUUCGAGAAGGCUGAUUUAUAA [JR_ExcFMNB_Sub006] | 82.1 | 83.5 | 34 | 70.4 | 35.3
4 | AUUAAUUUCAGAGGAUAUCGUUAUUUUUUAUAUUUUAUUCAUUUAUGCAGUGAUGUUGCUAUUAUUCGAGAAGGCUGAUUUAUAA [JR_ExcFMNB_Sub004] | 86.4 | 105 | 44.9 | 100 | 50.9
5 | AUUAUAUUGUGAAGGAGCGCGAAUAGCAGUGAUGUUGCUAUCAAACGAUAUAUUAUUUACACGCAGGUAGGUCGCACAAUAUAUA [JR_Nu_SSArginiB_Sub022] | 171 | 125 | 149 | 124 | 155
6 | AUUCACCUGUCGGCCGCCACUGCGUUAGCAGUAUCGGGCAGAAACUUCGCAGUGAUGUUGCGACUCAGGACCGGGACGUUGAGGA [theeternabot_exclusion_KL_Trp_B_29] | 445 | 406 | 468 | 454 | 504
7 | AUUCAGAUCUGAAGGAGCGCCUUGACAAAUUACUGCUUUGAGCAGUGAUGUUGCUCAAUUAGGCAGGUAGGUCGCAGAUCUAACC [Arg B Ex t7] | 377 | 335 | 414 | 383 | 389
8 | AUUCUUAUAAUAACACUAUAUACAACUGAAGGAGCGACAAUAAAGUCAGGUAGGUCGCAGAAUAAAUGAGUGAUGUUCAUUUUUA [JR_ExcArginiA_Sub011] | 129 | 153 | 129 | 150 | 86.8
9 | AUUGAACAAGUGAUGUUUGUAUUUUCCGAAGGAGCGUCUAAUAAGACAGGUAGGUCGCGGUUUCUCUUAAUAAUCAGGUCUUUAA [JR_Nu_ExcArginiA_Sub021] | 279 | 287 | 279 | 292 | 238
10 | AUUUAAUGUAUAGAUUAUAUACAUUAUUCAGAGGAUAUGCAUUGAAGCAGAAGGCUGGGUGUAGUGAUGUUGCAAUUUUAAUUUA [whbob_SS_FMNA__2th172] | 118 | 184 | 159 | 299 | 84.1
11 | AUUUAAUUAACUGAUACCAGACUUUUUGUUUUGUUUAUUACUAGUGAUGUUAGUGUUUCUGUCCCUUGGCAGCAGAAUCUACUUA [JR_ExcTheophyB_Sub019] | 172 | 297 | 191 | 364 | 165
12 | AUUUAUUCGAGUGAUGUUCGUGAUUUUUCAGAGGAUAUGCGUAAUAGCAGAAGGCUGUAUUUAUAUAUAUUUUGAUUUUUUUAAA [JR_Nu3_ExcFMNA_Sub024] | 82.2 | 122 | 64.6 | 99.4 | 61.8
13 | AUUUUUUUGUCAGGAUAUUAGUGUGGGUUUGGUUUGUUAGUGAUGUUGAUAUUUGGUUUAUGUAUUUAAGAAGGGAUUUAGCGGU [frrvemullin] | 563 | 359 | 408 | 492 | 375
14 | CACGGAGUGAUGUUCCGACCGAGGAACGAUACCAGACAAGUAUACGUCCCUUGGCAGCGUUUCUUAUAUAGUCAACGUUACCGUA [Theo A Ex t3] | 395 | 469 | 507 | 537 | 405
15 | CAGAACUUAUAUAGAAACUAUAUAAGAGAUACCAGUCAAAUUAAAGACCCUUGGCAGCUCAGGCGAGUGAUGUUCGCAGGCUAAC [Astros-Gfrank-modulation#1] | 99.3 | 94.2 | 102 | 106 | 78.8
16 | CAUACGCAUGGAGGAUAUGAGAUUACUCAUAUUAUUUAAUAUUCUCAGUGAUGUUGAGAUAUAAACUCAGAAGGCCAUGUGUAUG [Ex FMN B 1] | 184 | 152 | 143 | 166 | 153
17 | CAUAGACAAGUGAUGUUUGUCAUAACCGAAGGAGCGUCGUUGAAGACAGGUAGGUCGCGGAUUAAUUUAGAUUAUAUUCUUUUUA [JR_SSArginiA_Sub020] | 595 | 462 | 570 | 567 | 542
18 | CCAGGAUGAUGAGGAUGAUGAAUUACUGAAGGAGCGCAUAUGGUUGCAGGUAGGUCGCGGUGAAUAAGUAUAGUGAUGUUAUGCC [SSArgA.X] | 530 | 407 | 594 | 448 | 427
19 | CCAUCCGAGUCGGCCGCCACUUUGAGUGAUGUUUGGAGUCUGAGUCAACAUAAAUACUUAGUUUAAAGGACCGGGACUUCGGAUG [theeternabot_exclusion_KL_Trp_B_7] | 773 | 722 | 1020 | 1060 | 363
20 | CCAUCGCUAUUCGAUACCAGCUAAAUAUAAUAUAACCAGUGAUGUUGGUAUAUAAAUAUAAGCCCUUGGCAGCGAAUAGUGAUGG [Theophylline B K4 30] | 139 | 107 | 113 | 103 | 109
21 | CCAUCGCUAUUCGAUACCAGUCUACGUAGGAAACUACGUCUGCAAAGGAGUGAUGUUCCAGACCCUUGGCAGCGAAUAGUGAUGG [Theophylline B K4 5] | 969 | 689 | 792 | 589 | 900
22 | CCAUUCUUUUACGAUACCAGUCUAAUAUAUUGAAUCAAAACCCUCGCCGAGUGAUGUUCGGACCCUUGGCAGCGUCUGCGAGAGG [xwxxtkmullin] | 629 | 542 | 602 | 549 | 498

Row | Sequence | apparent KD of K4 kissing-loop reporter (input ligand: FMN 200 uM) [nM] | apparent KD of K4 kissing-loop reporter (input ligand: arginine 13.2 mM) [nM] | apparent KD of K4 kissing-loop reporter (input ligand: none) [nM] | apparent KD of K4 kissing-loop reporter [1] [nM] | apparent KD of K4 kissing-loop reporter [2] [nM]
23 | CCCUCACGAGUGAUGUUCGUAGGGUACAGUCAGGAUAUCAUGCGGUUGAGAAGGGACAGAGAGGGCGGCGGCGGGUUGCUCAUCU [Isanausbe] | 197 | 217 | 325 | 266 | 215
24 | CCGAGCUACAGCGAUACCAGUGUGGAGUGAUGUUCCCUGGUCCGGGCUGUUGUUCCCUUGCGCCCUUGGCAGCGCAGAAGCAGCU [Exclusion Theophylline B GF 14] | 303 | 316 | 367 | 267 | 396
25 | CCGCUACCCUCAGGAUAUUAAAUAUUAGUGAUGUUAAUAAACCGAUGGCGAAAGCCAUCGGUAUGUUGAGAAGGGAGGGUAGCGG [whbob_SS_FMNB__2th196] | 145 | 593 | 766 | 549 | 635
26 | CCGGCCCGGCCGGAUACCAGUGCGCCGCUGGGAACUGCGGGCCCAGAGUGAUGUUCGGGACACCCUUGGCAGCCGCCUGGGUCGC [#2 Same State - Theophylline B Attempt #25 (HarryS)] | 450 | 345 | 562 | 360 | 439
27 | CCUAUCUCAUACGAUACCAGUCGUCGAGUGAUGUUCGAUUAAAUAUAUUUGCCAAAUAACGACCCUUGGCAGCGUAUGGGAUAGG [Ex Theophylline B K4 17] | 367 | 328 | 340 | 417 | 314
28 | CCUAUCUCAUACGAUACCAGUGAAUAACCAGUGAUGUUGGAAUAACCAAGGAAUAUUUUACACCCUUGGCAGCGUAUGGGAUAGG [Ex Theophylline B K4 25] | 274 | 239 | 305 | 270 | 269
29 | CCUUGAGAGUGAUGUUCUCGAGUGAAAGUCAAGGAUAUCCCGCGGUGGAGAAGGUGAUGGCGAACUUGACUGCUGUCAGUCCUAA [theeternabot_exclusion_KL_FMN_A_10] | 104 | 105 | 121 | 109 | 110
30 | CGAGUCAAUUCAGAUACCAGCCAAUUAAAGUCGAGUGAUGUUCGACAAUGAACAUCCAAAGGCCCUUGGCAGCUGAAUUGGGAAC [Same State Theophylline B GF 18] | 144 | 87.3 | 114 | 228 | 83.4
31 | CGAGUGAUGUUCGUUUAUUACUCUGUUUGACAGGAUAUGCGGAAACGCAGAAGGGUCACCUUUGAGUUAGACGGAGUUAUUUUUU [Ex FMN A 22] | 539 | 359 | 407 | 355 | 323
32 | CGAUCUGAUAGCAGUGAUGUUGCUACAGAUACCAGUCCAGAUCGAGACCCUUGGCAGCUGACCCGGCAUGUGCUAUGGUAGAUCG [Theo A Ex t1] | 156 | 127 | 155 | 154 | 146
33 | CGCAGUGAUGUUGCGAAUAUAAUAACGGAAGGAGCGCGUGAAAACGCAGGUAGGUCGCCGAUUGGUAUGAUGGAAACAUCGUACC [Arginine A K4 9] | 154 | 134 | 125 | 115 | 122
34 | CGCGUAUCGGCAGGAUAUGGAGUUGAGUGAUGUUCAGCAAUGGGUCAUCAUCUUUAUGACAAUCCACCAGAAGGGCCGAUACGCG | 622 | 632 | 1100 | 944 | 812
35 | CGGACGGUAUCGGCCGCCACUCUGAAGACAGUGAUGUUGUCCGUGCAGUAUUUAGGAAAGCCGCGGAGGACCGGGAUGCGUCACU [theeternabot_sameState_KL_Trp_B_48] | 374 | 150 | 232 | 253 | 340
36 | CGGAUGUAGUGAUGUUAUAUUAGAUGUAGACGAGGACCGGUACGGCCGCCACUCGUGAUGGCUGCUAGCGCGUUGCGAGGUUUGC [ExTryptoA.Co] | 408 | 558 | 567 | 633 | 386
37 | CGUGCCCGGCCGGAUACCAGUGACCCGCUGGGAACCGCGGGCCCAGAGUGAUGUUCGGGACACCCUUGGCAGCCGCCUGGGCGGC [#2 Same State - Theophylline B Attempt #13 (HarryS)] | 987 | 637 | 1080 | 614 | 655
38 | CUAUGGAAACAUAGUGAUCGGGAAACCGAUACCAGUAUGGAAACAUACCCUUGGCAGCGGAAUGAUCUAACGGAGUGAUGUUCCG [Theophylline A K4 23] | 492 | 456 | 574 | 389 | 496
39 | CUCUAACUGAGAAGGAGCGCGAUAUAAACACUCGCACAGUGAUGUUGUGUGUCAAGGGUAUCGCAGGUAGGUCGCUCAGAUACCU [Arg B SS t15] | 294 | 247 | 255 | 273 | 248
40 | CUGAGCCUGACGUAAGUCAGGCUCUGCGAGCGAGGACCGGUACGGCCGCCACUCGGUGCAGUGAUGUUGCAUGGCCGCAAGGCCG [#2 Exclusion - Tryptophan A Attempt #19 (HarryS)] | 293 | 246 | 234 | 254 | 345
41 | CUGGGUUGACGAAAAGUCAACAAAUGAGAAGGAGCGCACGAAAGUGCAGGUAGGUCGCUCAGUCCAGUGAUGUUGGAUCAUCCAG [#SwitchBubble 10 #K4Late] | 461 | 602 | 578 | 480 | 361
42 | GAAACGUUGCGGACUAUCGCAUAAAGUCACCGAGGACCGGUACGGCCGCCACUCGCCAGUGAUGUUGGCGUGUUUGCGCGCUGUG [Titebebi] | 104 | 94 | 95.4 | 101 | 178
43 | GAAAGGAGUGAUGUUCCUGAUAAUUUUAUGAAGGAUAUUCGAUGUGGAAGAAGGUCAUGCAGGCAGCAAGGUUGCGAUCAUAUCA [theeternabot_exclusion_KL_FMN_A_40] | 131 | 158 | 143 | 185 | 128
